Test results taken from IntAct's records for PubMed 18469807.

Legend:
[1] = target: unc5b_human UNC5B (UniProt Q8IZJ1)
[2] = target: unc5b_human UNC5B (UniProt Q8IZJ1); remark: listed apart in the source

Sequence of unc5b_human UNC5B (Q8IZJ1 whole entry): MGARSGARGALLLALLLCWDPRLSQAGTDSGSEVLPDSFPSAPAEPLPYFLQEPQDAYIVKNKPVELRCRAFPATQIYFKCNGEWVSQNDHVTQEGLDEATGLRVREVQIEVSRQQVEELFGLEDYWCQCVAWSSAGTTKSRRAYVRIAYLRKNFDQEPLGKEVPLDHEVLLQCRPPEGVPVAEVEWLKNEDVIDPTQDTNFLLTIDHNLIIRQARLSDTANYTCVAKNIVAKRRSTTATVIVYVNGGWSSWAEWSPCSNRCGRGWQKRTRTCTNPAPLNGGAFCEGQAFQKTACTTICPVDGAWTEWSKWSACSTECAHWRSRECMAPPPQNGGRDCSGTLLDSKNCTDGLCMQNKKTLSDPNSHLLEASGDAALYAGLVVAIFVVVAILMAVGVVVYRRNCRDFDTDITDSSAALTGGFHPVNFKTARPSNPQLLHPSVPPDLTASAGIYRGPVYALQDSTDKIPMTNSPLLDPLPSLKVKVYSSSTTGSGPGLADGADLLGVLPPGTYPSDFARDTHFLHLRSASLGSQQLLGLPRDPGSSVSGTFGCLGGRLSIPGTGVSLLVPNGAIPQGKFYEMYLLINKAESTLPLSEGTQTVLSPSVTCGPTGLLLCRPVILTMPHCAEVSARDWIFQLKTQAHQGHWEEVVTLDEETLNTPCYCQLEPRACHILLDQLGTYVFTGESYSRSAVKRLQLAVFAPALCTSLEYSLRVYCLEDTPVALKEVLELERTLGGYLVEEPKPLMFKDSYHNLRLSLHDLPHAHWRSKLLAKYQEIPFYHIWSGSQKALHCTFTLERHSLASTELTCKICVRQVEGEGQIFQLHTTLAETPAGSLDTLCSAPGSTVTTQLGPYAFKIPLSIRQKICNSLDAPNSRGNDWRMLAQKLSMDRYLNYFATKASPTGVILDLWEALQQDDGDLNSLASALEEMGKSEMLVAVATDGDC

effect of a mutation on the interaction [1] | effect of a mutation on the interaction [2] | Substance
disrupting interaction |  | Arf-GAP with GTPase, ANK repeat and PH domain-containing protein 2 (Rattus norvegicus (Rat)), Q8CGU4 K413A;S414N
 | disrupting interaction | Arf-GAP with GTPase, ANK repeat and PH domain-containing protein 2 (Rattus norvegicus (Rat)), Q8CGU4 Y1032F
 | disrupting interaction | Arf-GAP with GTPase, ANK repeat and PH domain-containing protein 2 (Rattus norvegicus (Rat)), Q8CGU4 Y1032F;Y1124F
 | disrupting interaction | Arf-GAP with GTPase, ANK repeat and PH domain-containing protein 2 (Rattus norvegicus (Rat)), Q8CGU4 Y1124F
